# Reference: paper PMC12001206, “Characterization of multiple binding sites on microtubule associated protein 2c recognized by dimeric and monomeric 14‐3‐3ζ” (The Febs Journal, 2025)
# “And” between values parts separate entries of the source, which are not always exact repeats. Equal values may be shown once. Read-outs that look alike come from different tables or passages of the source. Square brackets hold non-standard residues; d marks the D form. Ends that are not written are not given here. pS = N[C@@H](COP(=O)(O)O)C(=O)O
# T1: MAP2c fully phosphorylated by PKA (rat, UniProt P15146-3 1-467, almost complete phosphorylation at Ser184, Thr220, and Ser435)
# T1 construct: microtubule-associated protein 2c (MAP2c), rat, 467 residues, UniProt A6KFC7; 15N,13C-labelled for the HNCO experiments; also called MP‐MAP2c; source: MAP2c expressed and purified as described earlier, incubated overnight with PKA at 27 °C, purified on HiTrap SP
# T1 sequence (looked up): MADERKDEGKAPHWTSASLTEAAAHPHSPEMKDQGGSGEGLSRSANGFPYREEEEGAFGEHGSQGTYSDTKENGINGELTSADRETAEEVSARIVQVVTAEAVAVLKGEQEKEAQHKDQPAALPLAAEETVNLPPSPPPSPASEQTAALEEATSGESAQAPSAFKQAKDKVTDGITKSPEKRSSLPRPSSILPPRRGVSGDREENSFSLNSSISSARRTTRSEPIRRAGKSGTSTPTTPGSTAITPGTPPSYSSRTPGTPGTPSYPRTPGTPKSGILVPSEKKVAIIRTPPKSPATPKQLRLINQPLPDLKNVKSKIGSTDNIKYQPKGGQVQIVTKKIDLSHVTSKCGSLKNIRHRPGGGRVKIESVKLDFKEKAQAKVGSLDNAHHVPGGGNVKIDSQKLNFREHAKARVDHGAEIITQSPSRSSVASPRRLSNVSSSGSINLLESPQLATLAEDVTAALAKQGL
# T2: unphosphorylated MAP2c (microtubule associated protein 2c) (rat, UniProt P15146-3 1-467)
# T2 construct: microtubule-associated protein 2c (MAP2c), rat, 467 residues, UniProt A6KFC7; 15N,13C-labelled (M9 medium) for the HNCO experiments; also called UP‐MAP2c
# T2 sequence (looked up): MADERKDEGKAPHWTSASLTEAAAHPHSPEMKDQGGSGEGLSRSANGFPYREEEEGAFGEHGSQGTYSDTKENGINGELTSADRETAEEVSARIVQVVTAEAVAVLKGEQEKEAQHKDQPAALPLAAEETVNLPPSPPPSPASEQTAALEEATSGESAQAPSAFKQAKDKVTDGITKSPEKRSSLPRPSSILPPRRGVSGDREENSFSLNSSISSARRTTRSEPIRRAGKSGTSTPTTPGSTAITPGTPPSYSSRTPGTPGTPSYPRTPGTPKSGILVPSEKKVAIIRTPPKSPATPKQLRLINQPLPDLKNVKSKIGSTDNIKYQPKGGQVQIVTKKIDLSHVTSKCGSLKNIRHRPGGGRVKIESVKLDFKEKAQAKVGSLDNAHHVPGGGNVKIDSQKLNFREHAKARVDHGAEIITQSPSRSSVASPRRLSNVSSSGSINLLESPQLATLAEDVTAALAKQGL
# T3: MAP2c phosphorylated selectively by PKA at Ser435 (rat, UniProt P15146-3 1-467, phosphoserine at 435)
# T3 construct: microtubule-associated protein 2c (MAP2c), rat, 467 residues, UniProt A6KFC7; 15N,13C-labelled for the HNCO experiments; also called SP‐MAP2c; source: MAP2c expressed and purified as described earlier, incubated with PKA for 1 h at 27 °C, purified on HiTrap SP
# T3 sequence (looked up): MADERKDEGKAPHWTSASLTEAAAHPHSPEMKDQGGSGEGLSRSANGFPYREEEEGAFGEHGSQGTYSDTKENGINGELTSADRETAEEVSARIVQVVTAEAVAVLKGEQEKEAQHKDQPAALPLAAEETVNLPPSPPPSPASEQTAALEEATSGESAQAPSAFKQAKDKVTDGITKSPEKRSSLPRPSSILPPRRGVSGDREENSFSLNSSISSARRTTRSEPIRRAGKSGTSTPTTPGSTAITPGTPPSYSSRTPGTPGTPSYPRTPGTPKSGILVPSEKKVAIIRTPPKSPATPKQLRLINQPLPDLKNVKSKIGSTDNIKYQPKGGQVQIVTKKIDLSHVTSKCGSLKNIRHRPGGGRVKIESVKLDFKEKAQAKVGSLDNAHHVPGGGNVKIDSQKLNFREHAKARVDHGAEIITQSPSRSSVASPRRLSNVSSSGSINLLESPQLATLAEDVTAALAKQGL
# T4: monomeric 14‐3‐3ζ‐L12E/M78K/C25A/C189A, P63104
# T4 chain: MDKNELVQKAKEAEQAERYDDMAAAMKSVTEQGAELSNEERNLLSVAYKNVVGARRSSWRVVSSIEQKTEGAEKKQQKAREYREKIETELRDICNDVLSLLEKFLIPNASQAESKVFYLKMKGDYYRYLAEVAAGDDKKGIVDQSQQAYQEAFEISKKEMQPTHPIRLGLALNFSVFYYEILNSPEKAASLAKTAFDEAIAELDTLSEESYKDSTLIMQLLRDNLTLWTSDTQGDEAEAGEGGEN
# B1: dimeric pseudo wild‐type 14‐3‐3ζ (14‐3‐3ζ C25A/C189A) (natural protein)
# chain: SVDMDKNELVQKAKLAEQAERYDDMAAAMKSVTEQGAELSNEERNLLSVAYKNVVGARRSSWRVVSSIEQKTEGAEKKQQMAREYREKIETELRDICNDVLSLLEKFLIPNASQAESKVFYLKMKGDYYRYLAEVAAGDDKKGIVDQSQQAYQEAFEISKKEMQPTHPIRLGLALNFSVFYYEILNSPEKAASLAKTAFDEAIAELDTLSEESYKDSTLIMQLLRDNLTLWTSDTQGDEAEAGEGGEN
# notes: additional residues at the N-terminus; 14-3-3ζ, residues 1-245, UniProt P63104; C25A and C189A count on P63104; The results speak of '230 residues examined' in the crystals, the methods of residues 1-245 plus SVD; also called d14‐3‐3ζ; dimeric 14‐3‐3ζ
# Assays:
# [1] = biological target: unphosphorylated MAP2c (microtubule associated protein 2c) (rat) (UniProt P15146); test: cross-linking; DSBU (200 μM) cross-linking, SDS/PAGE and LC-MS/MS; 20 μM UP-/MP-MAP2c with 80 μM d14-3-3ζ or m14-3-3ζ, or 80 μM d14-3-3ζ with 100 or 400 μM UP-(333-362); PBS, 1 mM TCEP, 37 °C
# [2] = biological target: T1, MAP2c fully phosphorylated by PKA; test: as above
# [3] = biological target: MAP2c phosphorylated selectively by PKA at Ser435 (rat) (UniProt P15146); test: ITC; 14-3-3ζ (d: 2.9-3 mM; m: 1.5 mM) injected into the cell with 90 μM MAP2c or 220 μM fragment 300-467; 27 °C; 50 mM MOPS, 100 mM NaCl, 4 mM β-mercaptoethanol; one set of sites; apparent KD
# [4] = biological target: MAP2c phosphorylated selectively by PKA at Ser435 (rat) (UniProt P15146); test: NMR titration; 31P 1D NMR; 60 μM SP-MAP2c or MP-MAP2c with 12.5-300 μM d14-3-3ζ or 12.5-200 μM m14-3-3ζ; chemical shift changes fitted; apparent KD
# [5] = biological target: T1, MAP2c fully phosphorylated by PKA; test: ITC; 14-3-3ζ (d: 2.9-3 mM; m: 1.5 mM) injected into the cell with 90 μM MAP2c or 220 μM fragment 300-467; 27 °C; 50 mM MOPS, 100 mM NaCl, 4 mM β-mercaptoethanol; one set of sites; apparent KD
# [6] = biological target: B1; test: ITC; 3 mM d14-3-3ζ injected into 160 μM SP-(432-439) or 150 μM UP-(333-362); 27 °C; 50 mM MOPS, 100 mM NaCl, 4 mM β-mercaptoethanol; n set to one in the fit; conditions: both partners purified
# [7] = biological target: the molecule itself; test: cross-linking; DSBU (200 μM) cross-linking, SDS/PAGE and LC-MS/MS; 20 μM UP-/MP-MAP2c with 80 μM d14-3-3ζ or m14-3-3ζ, or 80 μM d14-3-3ζ with 100 or 400 μM UP-(333-362); PBS, 1 mM TCEP, 37 °C
# [8] = biological target: T2, unphosphorylated MAP2c (microtubule …); test: as above; conditions: both partners purified
# [9] = biological target: T3, MAP2c phosphorylated selectively by PKA …; test: NMR titration; 31P 1D NMR; 60 μM SP-MAP2c or MP-MAP2c with 12.5-300 μM d14-3-3ζ or 12.5-200 μM m14-3-3ζ; chemical shift changes fitted; apparent KD; conditions: both partners purified
# [10] = biological target: T3, MAP2c phosphorylated selectively by PKA …; test: ITC; 14-3-3ζ (d: 2.9-3 mM; m: 1.5 mM) injected into the cell with 90 μM MAP2c or 220 μM fragment 300-467; 27 °C; 50 mM MOPS, 100 mM NaCl, 4 mM β-mercaptoethanol; one set of sites; apparent KD; conditions: both partners purified
# [11] = biological target: T2, unphosphorylated MAP2c (microtubule …); test: as above; conditions: both partners purified
# [12] = biological target: B1; test: NMR titration; 3D HNCO peak broadening; 350 μM 15N,13C-UP-(300-399) with 350 μM d14-3-3ζ; 27 °C; NMR buffer; conditions: both partners purified
# [13] = biological target: T4, monomeric 14‐3‐3ζ‐L12E/M78K/C25A/C189A, …; test: ITC; free m14-3-3ζ titrated into ITC buffer; heat of dissociation; dimer to monomers; conditions: remark: other sources report otherwise
# [14] = biological target: T4, monomeric 14‐3‐3ζ‐L12E/M78K/C25A/C189A, …; test: native gel or EMSA; native PAGE; 100 μM d14-3-3ζ or m14-3-3ζ with 0-400 μM MP-MAP2c, 15 min at room temperature; 10% gel, 25 mM Tris, 192 mM glycine, 4 °C; conditions: remark: other sources report otherwise
# [15] = biological target: B1; test: ITC; 14-3-3ζ (d: 2.9-3 mM; m: 1.5 mM) injected into the cell with 90 μM MAP2c or 220 μM fragment 300-467; 27 °C; 50 mM MOPS, 100 mM NaCl, 4 mM β-mercaptoethanol; one set of sites; apparent KD; conditions: both partners purified
molecule,measurement,setting,value
monomeric 14‐3‐3ζ‐L12E/M78K/C25A/C189A (from UniProt P63104 1-245) (natural protein),stoichiometry N,[1],2
same,stoichiometry N,[2],2
same,Kd,[3],102 µM
same,dH,[3],2.49 kcal/mol
same,stoichiometry N,[3],1.51
same,Kd,[4],133 µM
same,Kd,[5],17 µM
same,dH,[5],0.765 kcal/mol
same,stoichiometry N,[5],1.31
"QIVTKKIDLSHVTSKCGSLKNIRHRPGGGR (source: synthetic peptide, ordered from Clonestar) [peptide corresponding to residues 333–362 of MAP2c]",Kd,[6],1800 ± 100 µM
B1,stoichiometry N,[2]; both partners purified,2
same,binding result,[7],binds
same,stoichiometry N,[8],2
same,Kd,[9],7.3 µM and < 15 µM
same,stoichiometry N,[9],2.73 ± 0.2
same,Kd,[10],74 ± 21 µM
same,dH,[10],2.08 ± 0.239 kcal/mol
same,stoichiometry N,[10],2.68 ± 0.12
same,Kd,[5]; both partners purified,21 ± 3 µM
same,dH,[5]; both partners purified,1.34 ± 0.0478 kcal/mol
same,stoichiometry N,[5]; both partners purified,1.99 ± 0.04
same,Kd,[11],58 ± 6 µM
same,dH,[11],2.72 ± 0.12 kcal/mol
same,stoichiometry N,[11],1.93 ± 0.03
"MAP2c microtubule binding domain fragment, residues 300–399 (domain or fragment, rat, UniProt P15146-3 300-399, looked up, MAP2c, rat, UniProt A6KFC7, residues 300-399, containing the MTBD; also called UP‐(300–399); MTBD; source: cloned into pET28a (NcoI, BamHI); expressed in M9 medium (15N,13C) and purified by the same protocol as MAP2c) LRLINQPLPDLKNVKSKIGSTDNIKYQPKGGQVQIVTKKIDLSHVTSKCGSLKNIRHRPGGGRVKIESVKLDFKEKAQAKVGSLDNAHHVPGGGNVKIDS",binding result,[12],binds
"monomeric 14‐3‐3ζ‐L12E/M78K/C25A/C189A, P63104 1-245 (natural protein) MDKNELVQKAKEAEQAERYDDMAAAMKSVTEQGAELSNEERNLLSVAYKNVVGARRSSWRVVSSIEQKTEGAEKKQQKAREYREKIETELRDICNDVLSLLEKFLIPNASQAESKVFYLKMKGDYYRYLAEVAAGDDKKGIVDQSQQAYQEAFEISKKEMQPTHPIRLGLALNFSVFYYEILNSPEKAASLAKTAFDEAIAELDTLSEESYKDSTLIMQLLRDNLTLWTSDTQGDEAEAGEGGEN",Kd,[13],600 µM
same,percent present as a dimer at 100 μM,[14],20%
"unphosphorylated MAP2c fragment 300–467 (MTBD and CTD) (domain or fragment, rat, UniProt P15146-3 300-467, looked up, MAP2c, rat, UniProt A6KFC7, residues 300-467, covering MTBD and CTD; also called UP‐(300–467); source: cloned into pET28a (NcoI, BamHI); expressed and purified by the same protocol as MAP2c) LRLINQPLPDLKNVKSKIGSTDNIKYQPKGGQVQIVTKKIDLSHVTSKCGSLKNIRHRPGGGRVKIESVKLDFKEKAQAKVGSLDNAHHVPGGGNVKIDSQKLNFREHAKARVDHGAEIITQSPSRSSVASPRRLSNVSSSGSINLLESPQLATLAEDVTAALAKQGL",Kd,[15],56 ± 8 µM
"MAP2c fragment 300–467 phosphorylated by PKA on Ser435 (domain or fragment, rat, UniProt P15146-3 300-467, looked up, phosphoserine at 435, MAP2c, rat, UniProt A6KFC7, residues 300-467, covering MTBD and CTD; also called SP‐(300–467); source: cloned into pET28a; expressed and purified by the same protocol as MAP2c; incubated overnight with PKA at 27 °C) LRLINQPLPDLKNVKSKIGSTDNIKYQPKGGQVQIVTKKIDLSHVTSKCGSLKNIRHRPGGGRVKIESVKLDFKEKAQAKVGSLDNAHHVPGGGNVKIDSQKLNFREHAKARVDHGAEIITQSPSRSSVASPRRLSNVSSSGSINLLESPQLATLAEDVTAALAKQGL",Kd,[15],24 ± 6 µM
"RRL[pS]NVSS (source: synthetic peptide, ordered from Clonestar) [phosphopeptide corresponding to residues 432–439 of MAP2c]",Kd,[6],3200 ± 400 µM
